From patent US20260103522A1 (published 2026)
Where two headings read alike, the source gives them in different places.

How the values were obtained:
[1] = target: T1, recombinantly expressed human FcεRIa-Fc protein (human, UniProt P12319 26-205); test: blocking ELISA; blocking human IgE binding
T1 chain: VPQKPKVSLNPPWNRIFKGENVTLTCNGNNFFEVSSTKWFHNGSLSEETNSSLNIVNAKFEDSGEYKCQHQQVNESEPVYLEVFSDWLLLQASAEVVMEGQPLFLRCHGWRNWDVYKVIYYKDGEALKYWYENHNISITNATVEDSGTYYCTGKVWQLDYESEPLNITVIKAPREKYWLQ

[2] = target: T2, recombinant human FcεRIa extracellular region-mouse IgG2a Fc-6×His fusion protein (human, UniProt P12319 26-205); test: BLI
T2 chain (part 1 of 2): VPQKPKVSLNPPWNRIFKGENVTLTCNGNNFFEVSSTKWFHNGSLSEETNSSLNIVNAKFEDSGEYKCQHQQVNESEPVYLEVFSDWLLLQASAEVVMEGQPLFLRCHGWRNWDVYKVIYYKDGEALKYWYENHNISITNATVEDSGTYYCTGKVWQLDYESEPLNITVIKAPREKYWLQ
T2 chain (part 2 of 2): HHHHHH

[3] = target: T1, recombinantly expressed human FcεRIa-Fc …; test: blocking ELISA; blocking human IgE binding
[4] = target: T1, recombinantly expressed human FcεRIa-Fc …; test: blocking ELISA; blocking human IgE binding

B1: Her2-specific binding protein DB872 (antibody)
heavy: EVQLVESGGGLVQPGGSLRLSCAASGFTFTDYTMDWVRQAPGKGLEWVADVNPNSGGSIYNQRFKGRFTLSVDRSKNTLYLQMNSLRAEDTAVYYCARNLGPSFYFDYWGQGTLVTVSSASTKGPSVFPLAPSSKSTSGGTAALGCLVKDYFPEPVTVSWNSGALTSGVHTFPAVLQSSGLYSLSSVVTVPSSSLGTQTYICNVNHKPSNTKVDKKVEPKSCDKTHTCPPCPADSNPRGVSVFLFPPKPKDTLMISRTPEVTCVVVDLAPSKGTVKFNWYVDGVEVHNAKTKPREKQRNGTLTVVSVLTVLHQDWLNGKEYKCKVTHPHLPRALEKTISKAKGQPREPQVYTLPPSREEMTKNQVSLTCLVKGFYPSDIAVEWESNGQPENNYKTTPPVLDSDGSFFLYSKLTVDKSRWQQGNVFSCSVMHEALHNHYTQKSLSLSPGK
light: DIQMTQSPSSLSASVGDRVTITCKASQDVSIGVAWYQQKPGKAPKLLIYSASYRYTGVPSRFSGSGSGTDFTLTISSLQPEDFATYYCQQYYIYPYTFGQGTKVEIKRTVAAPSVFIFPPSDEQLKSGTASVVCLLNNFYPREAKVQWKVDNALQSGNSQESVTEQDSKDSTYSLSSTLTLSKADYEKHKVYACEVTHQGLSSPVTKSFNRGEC
[1]
  IC50: 77.4 nM
[2]
  Kd: 1.81 nM

B2: binding protein DB-B64 (designed binder)
chain: CPAPELLGGPSVFLFPPKPKDTLMISRTPEVTCVVVDLAPSKGTVKFNWYVDGVEVHNAKTKPREKQRNGTLTVVSVLTVLHQDWLNGKEYKCKVTHPHLPRALEKTISKAKGQPREPQVYTLPPSREEMTKNQVSLTCLVKGFYPSDIAVEWESNGQPENNYKTTPPVLDSDGSFFLYSKLTVDKSRWQQGNVFSCSVMHEALHNHYTQKSLSLSPGK
[3]
  EC50: 24.5 nM
[2]
  Kd: 4.68 nM

B3: Her2-specific binding protein DB871 (antibody)
heavy: EVQLVESGGGLVQPGGSLRLSCAASGFTFTDYTMDWVRQAPGKGLEWVADVNPNSGGSIYNQRFKGRFTLSVDRSKNTLYLQMNSLRAEDTAVYYCARNLGPSFYFDYWGQGTLVTVSSASTKGPSVFPLAPSSKSTSGGTAALGCLVKDYFPEPVTVSWNSGALTSGVHTFPAVLQSSGLYSLSSVVTVPSSSLGTQTYICNVNHKPSNTKVDKKVEPKSCSRDFTPPTVKILQSSCDGGGHFPPTIQLLCLVSGYTPGTINITWLEDGQVMDVDLSTASTTQEGELASTQSELTLSQKHWLSDRTYTCQVTYQGHTFEDSTKKCADSNPRGVSVFLFPPKPKDTLMISRTPEVTCVVVDLAPSKGTVKFNWYVDGVEVHNAKTKPREKQRNGTLTVVSVLTVLHQDWLNGKEYKCKVTHPHLPRALEKTISKAKGQPREPQVYTLPPSREEMTKNQVSLTCLVKGFYPSDIAVEWESNGQPENNYKTTPPVLDSDGSFFLYSKLTVDKSRWQQGNVFSCSVMHEALHNHYTQKSLSLSPGK
light: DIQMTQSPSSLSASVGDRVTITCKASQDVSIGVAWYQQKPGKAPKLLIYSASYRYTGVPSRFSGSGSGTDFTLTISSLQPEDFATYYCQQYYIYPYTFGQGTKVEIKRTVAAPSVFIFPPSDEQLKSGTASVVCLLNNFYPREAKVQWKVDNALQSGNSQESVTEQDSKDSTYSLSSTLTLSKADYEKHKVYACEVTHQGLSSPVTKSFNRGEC
[1]
  IC50: 61.2 nM
[2]
  Kd: 1.91 nM

B4: binding protein DB177 (designed binder)
chain: CSRDFTPPTVKILQSSCDGGGHFPPTIQLLCLVSGYTPGTINITWLEDGQVMDVDLSTASTTQEGELASTQSELTLSQKHWLSDRTYTCQVTYQGHTFEDSTKKCADSNPRGVSVFLFPPKPKDTLMISRTPEVTCVVVDLAPSKGTVKFNWYVDGVEVHNAKTKPREKQRNGTLTVVSVLTVLHQDWLNGKEYKCKVTHPHLPRALEKTISKAKGQPREPQVYTLPPSREEMTKNQVSLTCLVKGFYPSDIAVEWESNGQPENNYKTTPPVLDSDGSFFLYSKLTVDKSRWQQGNVFSCSVMHEALHNHYTQKSLSLSPGK
[4]
  IC50: 18.4 nM

B5: binding protein DB364 (designed binder)
chain: DFTPPTVKILQSSCDGGGHFPPTIQLLCLVSGYTPGTINITWLEDGQVMDVDLSTASTTQEGELASTQSELTLSQKHWLSDRTYTCQVTYQGHTFEDSTKKCADSNPRGVSVFLFPPKPKDTLMISRTPEVTCVVVDLAPSKGTVKFNWYVDGVEVHNAKTKPREKQRNGTLTVVSVLTVLHQDWLNGKEYKCKVTHPHLPRALEKTISKAKGQPREPQVYTLPPSREEMTKNQVSLTCLVKGFYPSDIAVEWESNGQPENNYKTTPPVLDSDGSFFLYSKLTVDKSRWQQGNVFSCSVMHEALHNHYTQKSLSLSPGK
[4]
  IC50: 15.7 nM
[2]
  Kd: 1.78 nM

B6: binding protein DB365 (designed binder)
chain: TKKCADSNPRGVSVFLFPPKPKDTLMISRTPEVTCVVVDLAPSKGTVKFNWYVDGVEVHNAKTKPREKQRNGTLTVVSVLTVLHQDWLNGKEYKCKVTHPHLPRALEKTISKAKGQPREPQVYTLPPSREEMTKNQVSLTCLVKGFYPSDIAVEWESNGQPENNYKTTPPVLDSDGSFFLYSKLTVDKSRWQQGNVFSCSVMHEALHNHYTQKSLSLSPGK
[4]
  IC50: 12.8 nM
[2]
  Kd: 0.719 nM

B7: binding protein DB366 (designed binder)
chain: CADSNPRGVSVFLFPPKPKDTLMISRTPEVTCVVVDLAPSKGTVKFNWYVDGVEVHNAKTKPREKQRNGTLTVVSVLTVLHQDWLNGKEYKCKVTHPHLPRALEKTISKAKGQPREPQVYTLPPSREEMTKNQVSLTCLVKGFYPSDIAVEWESNGQPENNYKTTPPVLDSDGSFFLYSKLTVDKSRWQQGNVFSCSVMHEALHNHYTQKSLSLSPGK
[1]
  IC50: 59.7 nM
[3]
  EC50: 8.94 nM
[4]
  IC50: 16.2 nM
[2]
  Kd: 1.68 nM

B8: binding protein DB-B63 (designed binder)
chain: CADSNPRGVSVFLFPPKPKDTLMISRTPEVTCVVVDLAPSKGTVNFNWYVDGVEVHNAKTKPREKQRNGTLTVVSVLTVLHQDWLNGKEYKCRVTHPHLPRALEKTISKAKGQPREPQVYTLPPSREEMTKNQVSLTCLVKGFYPSDIAVEWESNGQPENNYKTTPPVLDSDGSFFLYSKLTVDKSRWQQGNVFSCSVMHEALHNHYTQKSLSLSPGK
[3]
  EC50: 6.52 nM
